PMC6050537, “Inhibition of low-density lipoprotein receptor degradation with a cyclic peptide that disrupts the homodimerization of IDOL E3 ubiquitin ligase” (Chemical Science, 2018)
Non-standard residues stand in square brackets, D forms with d. Phe(4-NO2) = N[C@@H](Cc1ccc([N+](=O)[O-])cc1)C(=O)O; Phe(4-CN) = N#Cc1ccc(C[C@H](N)C(=O)O)cc1; Phe(4-Cl) = N[C@@H](Cc1ccc(Cl)cc1)C(=O)O; Phe(4-F) = N[C@@H](Cc1ccc(F)cc1)C(=O)O; Phe(4-Me) = Cc1ccc(C[C@H](N)C(=O)O)cc1; hPhe = N[C@@H](CCc1ccccc1)C(=O)O

T1: Full length IDOL (1–445), Q8WY64
T1 chain: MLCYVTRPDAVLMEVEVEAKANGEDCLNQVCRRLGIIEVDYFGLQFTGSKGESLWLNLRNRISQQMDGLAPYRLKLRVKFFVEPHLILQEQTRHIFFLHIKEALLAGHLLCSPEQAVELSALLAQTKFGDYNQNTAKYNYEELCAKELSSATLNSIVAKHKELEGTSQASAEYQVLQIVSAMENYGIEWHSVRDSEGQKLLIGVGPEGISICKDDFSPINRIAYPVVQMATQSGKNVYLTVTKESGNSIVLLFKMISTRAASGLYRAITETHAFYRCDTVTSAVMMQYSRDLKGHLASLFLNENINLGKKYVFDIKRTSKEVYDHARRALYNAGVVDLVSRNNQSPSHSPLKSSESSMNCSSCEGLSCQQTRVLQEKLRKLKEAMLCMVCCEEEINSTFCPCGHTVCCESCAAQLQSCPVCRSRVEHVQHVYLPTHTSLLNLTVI


Target: T1, Full length IDOL (1–445), Q8WY64
Experiment: MST
Conditions: modification not given; NT-647-NHS dye (only the labelled copy in the MST assays)

Row | Kd | Binder
1 | 35.2 µM | cyclo(CF[Phe(4-F)]LYT) (not fully specified) [RINGPep1 derivative with 4-fluoro-phenylalanine at position 3]
2 | 36.2 µM | cyclo(CF[Phe(4-CN)]LYT) (not fully specified) [RINGPep1 derivative with 4-cyano-phenylalanine at position 3]
3 | 23.1 µM | cyclo(CF[Phe(4-Me)]LYT) (not fully specified) [RINGPep1 derivative with 4-methy-phenylalanine at position 3]
4 | 12 µM | cyclo(CF[Phe(4-Cl)]LYT) (not fully specified) [RINGPep1 derivative with 4-chloro-phenylalanine at position 3]
5 | 23.6 µM | cyclo(CF[hPhe]LYT) (not fully specified) [RINGPep1 derivative with homo-phenylalanine at position 3]
6 | 35.7 µM | cyclo(CF[Phe(4-NO2)]LYT) (not fully specified) [RINGPep1 derivative with 4-nitro-phenylalanine at position 3]

Each binder was assayed against Full length IDOL (1–445) (UniProt Q8WY64) (assay: MST; Monolith NT.115; 6× His IDOL labelled with NT-647-NHS dye at 50 nM, peptides titrated; 10 mM HEPES, 300 mM NaCl, 1 mM TCEP, 0.05% TWEEN-20, pH 8.0, 5% DMSO). Conditions: not given.

Row | Kd | Binder
7 | 38.5 µM | CFFLYT (cyclic backbone (cyclo-)) [cyclo-CFFLYT]

Each binder was assayed against Full length IDOL (1–445) (UniProt Q8WY64) (assay: SPR; Biacore S200; 6× His-tagged full-length IDOL immobilized on an NTA chip (~6000 RU), peptides as analytes; 10 mM HEPES, 300 mM NaCl, 1 mM TCEP, 0.05% Tween 20, 4% DMSO, pH 8.0; saturation at the highest concentrations not observed). Conditions: not given.

Row | Kd | Binder
8 | 38.5 µM | CFFLYT (cyclic backbone (cyclo-)) [cyclo-CFFLYT]
9 | 20.9 µM | CTIFLL (cyclic backbone (cyclo-)) [cyclo-CTIFLL]
